Key:
[1] = target: protease activated receptor 2 (PAR2) (human (endogenous in Caco-2)) (UniProt P55085)
[2] = target: protease activated receptor 2 (PAR2) (human (endogenous in Caco-2)) (UniProt P55085); remark: listed apart in the source
[3] = target: protease activated receptor 2 (PAR2) (human (endogenous in Caco-2)) (UniProt P55085); remark: listed apart in the source
[4] = target: protease activated receptor 2 (PAR2) (human (endogenous in Caco-2)) (UniProt P55085); remark: listed apart in the source
[5] = target: protease activated receptor 2 (PAR2) (human (endogenous in Caco-2)) (UniProt P55085); remark: listed apart in the source

Sequence of UniProt P55085 (P55085 37-397): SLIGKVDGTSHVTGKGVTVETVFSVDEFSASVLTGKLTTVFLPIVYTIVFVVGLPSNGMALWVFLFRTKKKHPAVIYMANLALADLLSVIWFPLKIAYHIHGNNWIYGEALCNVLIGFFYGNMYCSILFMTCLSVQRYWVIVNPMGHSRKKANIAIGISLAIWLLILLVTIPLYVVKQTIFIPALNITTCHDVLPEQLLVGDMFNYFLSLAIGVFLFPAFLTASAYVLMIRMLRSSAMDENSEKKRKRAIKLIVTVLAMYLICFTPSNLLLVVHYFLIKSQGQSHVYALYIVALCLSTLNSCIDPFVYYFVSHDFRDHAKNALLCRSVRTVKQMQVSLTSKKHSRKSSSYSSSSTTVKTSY

Substance: Recombinant Trichinella spiralis trypsin, C-terminal domain (rTsTryp) (from UniProt E5RYV9 1-667)
- promotion of IIL larval invasion of the Caco-2 monolayer by 12, 16 and 20 μg/ml rTsTryp, against the PBS group [1]: 40.2 % promotion
- ZO-1 protein (Western blot) in the Caco-2 monolayer treated with rTsTryp, against the DMSO group; abrogated by AZ3451 pretreatment [2]: 56.5 % decrease
- occludin protein (Western blot) in the Caco-2 monolayer treated with rTsTryp, against the DMSO group; abrogated by AZ3451 pretreatment [2]: 49 % decrease
- level of phosphorylated ERK1/2 (Western blot) in the Caco-2 monolayer after 2 h with rTsTryp, against the PBS group [3]: 210 % increase
- ZO-1 mRNA (qPCR) in Caco-2 cells treated with rTsTryp, against the DMSO group; restored by AZ3451 pretreatment [4]: 55.9 % decrease
- occludin mRNA (qPCR) in Caco-2 cells treated with rTsTryp, against the DMSO group; restored by AZ3451 pretreatment [4]: 52.4 % decrease
- flux of 4 kDa FITC-dextran (FD4) through the Caco-2 monolayer, rTsTryp group against the PBS group (fold of the PBS group) [5]: 2
